What was measured:
[1] = biological target: T1, C4b-binding protein (C4BP), human, purified from plasma (human, UniProt P04003 49-597; P20851 18-252, ^125I-labelled in the binding assay on bacteria); assay: SEC; n = 26 binding sites per C4BP
T1 chain 1: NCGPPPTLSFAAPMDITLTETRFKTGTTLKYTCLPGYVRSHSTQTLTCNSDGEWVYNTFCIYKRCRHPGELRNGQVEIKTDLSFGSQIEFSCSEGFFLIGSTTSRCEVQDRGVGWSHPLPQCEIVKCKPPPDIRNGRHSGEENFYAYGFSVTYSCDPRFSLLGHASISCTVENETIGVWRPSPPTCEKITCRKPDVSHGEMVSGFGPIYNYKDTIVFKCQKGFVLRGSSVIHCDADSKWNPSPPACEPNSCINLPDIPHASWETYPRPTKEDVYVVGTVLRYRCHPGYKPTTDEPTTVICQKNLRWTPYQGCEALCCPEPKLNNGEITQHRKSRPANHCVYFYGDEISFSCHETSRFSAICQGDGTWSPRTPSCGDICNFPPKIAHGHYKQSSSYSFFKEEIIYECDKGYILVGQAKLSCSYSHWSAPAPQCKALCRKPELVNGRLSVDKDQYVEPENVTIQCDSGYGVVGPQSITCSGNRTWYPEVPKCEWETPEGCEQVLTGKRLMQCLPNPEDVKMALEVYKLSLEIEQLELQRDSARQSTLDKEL
T1 chain 2: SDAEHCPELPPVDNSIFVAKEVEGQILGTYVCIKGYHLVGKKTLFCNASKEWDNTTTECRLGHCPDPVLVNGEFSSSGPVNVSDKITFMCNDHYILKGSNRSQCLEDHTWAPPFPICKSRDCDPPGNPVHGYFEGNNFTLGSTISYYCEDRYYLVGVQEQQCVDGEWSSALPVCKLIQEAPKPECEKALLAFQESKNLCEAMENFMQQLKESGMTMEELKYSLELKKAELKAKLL

[2] = biological target: pooled human IgG (IVIG; Kiovig) (human); assay: SEC; n = 1.1 binding sites per Protein H

B1: Protein H (natural protein)
chain: EGAKIDWQEEYKKLDEDNAKLVEVVETTSLENEKLKSENEENKKNLDKLSKENQGKLEKLELDYLKKLDHEHKEHQKEQQEQEERQKNQEQLERKYQREVEKRYQEQLQKQQQLETEKQISEASRKSLSRDLEASRAAKKDLEAEHQKLEAEHQKLKEDKQISDASRQGLSRDLEASRAAKKELEANHQKLEAEHQKLKEDKQISDASRQGLSRDLEASRAAKKELEANHQKLEAEAKALKEQLAKQAEELAKLRAGKASDSQTPDTKPGNKAVPGKGQAPQAGTKPNQNKAPMKETKRQLPST
modifications: ^125I-labelled in the plate binding assay; Alexa-488 succinimidyl ester-labelled in thermophoresis; unlabelled elsewhere
Kd [1]: 1300 nM | Kd [2]: 78 nM

Reference: paper PMC6557989 (2019)
